The series is described as follows: label from the status in PepcDB records.

Turning to “MQHHKVAIIGAGAAGIGMAITLKDFGITDVIILEKGTVGHSFKHWPKSTRTITPSFTSNGFGMPDMNAISMDTSPAFTFNEEHISGETYAEYLQVVANHYELNIFENTVVTNISADDAYYTIATTTETYHADYIFVATGDYNFPKKPFKYGIHYSEIEDFDNFNKGQYVVIGGNESGFDAAYQLAKNGSDIALYTSTTGLNDPDADPSVRLSPYTRQRLGNVIKQGARIEMNVHYTVKDIDFNNGQYHISFDSGQSVHTPHEPILATGFDATKNPIVQQLFVTTNQDIKLTTHDESTRYPNIFMIGATVENDNAKLCYIYKFRARFAVLAHLLTQREGLPAKQEVIENYQKNQMYLDDYSCCEVSCTC”, the protein production entry is recorded as “not failed”.

With “MQIESFKSLLPKYKCIFFDAFGVLKTYNGLLPGIENTFDYLKAQGQDYYIVTNDASRSPEQLADSYHKLGLFSITADKIISSGMITKEYIDLKVDGGIVAYLGTANSANYLVSDGIKMLPVSAIDDSNIGEVNALVLLDDEGFNWFHDLNKTVNLLRKRTIPAIVANTDNTYPLTKTDVAIAIGGVATMIESILGRRFIRFGKPDSQMFMFAYDMLRQKMEISKREILMVGDTLHTDILGGNKFGLDTALVLTGNTRIDDAETKIKSTGIVPTHICESAVIEL”, the protein production entry is given as “not failed”. The entry for “MQIKEIFMIRCISCLSVVLLHIISMVLMLQAEALADISHTVDSFRTLLMFSTPAFIFISEFLLARSYPDGVPDGFLKKRGKVIFVPFLFIAAIDALLMTSAMGGEVTFLAFVQKYLANVFLGNFIGYFILVIFQFYMLHMMFHEYLKKASPKWVLSISFVVTAAYLGYFSAASPAPASEEGGAFPFFWVPFAGWLFYFCLAYYCGKEYKRFLALLNQYRWVVYGAAIASGALVVTVSYVGEIGMISSKRPDIMLYSTSMIFLCFHLFSKMKHVPKIMMFISNYSFSIYLLHAYFMIIGYVLLLNMPEIPAVPAVLLLFAVCTAGPIMTSWALNKFKYGYLFVGKIYQPKQKKVTVEVRDHAG” is “failed”. On to “MQILQTFVQSIQGVMTIIVMIAVGYLLARWGWFNESATKLIARLVTQIALPAYMIATITKQFTAHKLLSTLPGLRFPVLNMAILFGISFGVMRALNIKKSHRGLFASMFLNSNTVFIGLPVNQALFGNSALPYVLVYYMANTTIFWTLGVYLIQRDGTGTAKFDLKQTLTKIFSPPLLGFMIGVLLVLGNIHVPKFLMDDFSYIGGLTIPLSMIFIGISMANAGLSSMRFDRDSLGILLGRFILAPVLMTLMLIPMSIPLEMKQVFILQSAMPVMTNAPVVSKLYGADADYAAVMVTETTLLSLIVIPILMVIVQANFIR”, for which the protein production result is “failed”. The result for “MQIPIYSKLKTKLESKGIDNISSGQIAWFVCSLILALVTYIILTFHYIYISYGKYDKNLFLLIFDRNAIELFVIVYSCIMFNLLYIYNAIPLVLSAVFIFLAFYFSSLSLFIVGCCGIGVFFLISIFKRKFMFSVLLFALGYTCTLFFFYGLATY” reads “failed”; that for “MQIYLSTLTELDYDKSLNSIEESFDDNPETSWQARAKVKHLRKSPCYNFELEVIAKNENNDVVGHVLLIEVEINSDDKTYYGLAIASLSVHPELRGQKLGRGLVQAVEERAKAQEYSTVVVDHCFDYFEKLGYQNAAEHDIKLESGDAPLLVKYLWDNLTDAPHGIVKFPEHFY”, “failed”. The result for “MQKFIIHKGIACPLEYANIDTDQIIPKQFLLAVSKQGFGKHLFHDLRYLDDKESVLNMDFNLNKKEYQNSSILVSFENFGSGSSREHAPWALVDYGIRAIIAPSFADIFKNNALGNGLLTIELAKDEVLEIVDELKKSQDKNIEISLLEKRVFFKDKIFSFDLDDFHRICLLEGLDNIALTLKHEAQIKAYEKNSKSFLV” reads “not failed”; that for “MQKGFLLGLFAYATFSMGDATIKSLGSQISVFEIGFFSILFSGIFIFFSKPREERWREFWRMSRPFAVHGRAISGLFAGIFGIYAFTTIPLAEAYALIFLSPLFVTVLSAVVLKENIGPWRWAAVLAGIVGVILVVRPGFKTLELGHIAAIGVAFLAAMTIVLLRSLAGKEKRTSIMGVLLIYGLTFNGIASIPDFVMPNLHQLLAFAFIGLCTATGQITLLVATRIAPASQIAPSHYSQILWAVAIGMTFFHEYPDAIAALGLAVIAASGLLTMIREKVRLGTVRWNPFFRNRL”, “failed”; that for “MQKKSQTAQSYHPMIKEFPEFYGPLTCPGQFLALLILEFGLNFAEIQKLKWENFNWNFKYLTIEKAGIKRVLPIREKFAIRVKAINNADELFAKSRQFLYTELKKFTNYSSKEIREQYILHQVKAGKSIYELATLLGLTTITTLEKYYRLEHHHHHH”, “failed”.

Turning to “MQKLFLTFFYSGSVKKASGTFGTIAALIPAFFILKYLGINTLFLLSILIFVASIRVIDDYEKKTGIHDDKHIVIDEVAGVFLACAIAASVENSIVNFILAFVLFRLFDITKPSIIGKIDKKVKGGLGVMLDDMLAGLFAGLLSAVIYGFLLKFNLVFWDINLKDLF”, the protein production entry was “failed”. The result for “MQKRVVILLLDSFGIGASEDAKDFGDLGANTLGNIAKACFNNLADSNDRSGALKLPYLESLGLGLSALKAANELPLGFQSQPNLIGAYAYAQELSSAKDTISGHWEMMG” reads “failed”; that for “MQKSDALALDGSAALAEPVPATEIARGIAVLAAPTSLVAFLQAGAQLIETWLAARQGTASLAGWAVVLPFALLLQQMSTGAMGGGVVSAIARALGGGKREEASSLVLHALIIAVTAGLIFAIVLAGFPRSVFGAVAGATAAEAAASYAIWLFGAGAVPAWLANTLASVLRGGGRHALAARVLGGMWVVFPVLSWWLAERVGMGLAGIGAALAAVSWGAALVMAYVVFRGGAGFVPSLRIRPSKALFYRILSIGLVACALASVANLTTILVTAQLRHYGTTTVAAYGISARLEFLMIPLAFGVGSALTALVGRAVGAGDWHTARRTAWVGALLALLIAGTVGAAVGLAPNQFAGLFTQDPNVGAIAARALSWVGPAFGGFGLGMALYFASMGAGRMRWPIAAGLCRIALAAGGGWLLANVAGMGLDGHFLGVALGITSYGLVTAIGVRKGEWSPRH”, “failed”. The entry for “MQLSAPPYEERLTAPRTWWLMCFLVGVSMALILLPFGTLPLLGGLVGGTAVAAVVASSYGSIRIRVVGDSLIAGEAKIPVAALGEAEIMDQEEARAWRTYKANPRAFMLLRSYIPTALRVEVTDPQDPTPYLYLSTREPERLAAALKAARTEA” is “failed”; for “MQLSIEEVKKLDSNSYQIIDIRSEEEVAHGAIKGALNIQAEEIESDERVPHDKKLVIVCSRGKTSVDVAEYLTEKGFDAASLKGGYISWLLDAMKEDEVAERDIKADVEQSIRKKFKKSIWRKFTKAINTYELVKPGDKIAVCISGGKDSMLMAKLFQELKHHNKFDFDVKFLVMDPGYNEANRHVIEENCRNLGIPATIFESDIFDAVYDIEKSPCYLCARMRRGHLYAFAKELGCNKIALGHHYDDVIETILMGMLYGAQVQTMMPKLHSTNFEGMELIRPLYLVREDDIKAWRDYNGLHFIQCACKFTDTCTTCNNEENRSKRVEIKQLIANLKKVNPFVEANIFKSVENVNLATVVAYKKDGIKHSFLDHYDE” it is “failed”. The entry for “MQMAGFGLIAKLRNKIRVKPNNKIQIGKNTRIRYCDIYVNGNNNQLIIHNGANLKGVSIELNGNNCLLEIGENCVIGENCFLSCRESGTKLVIGKECMFSRNVKLMTSDGHDILRDGKRINPAKSIYIGSHVWLADNVTILKGVDIGSGSIIGINSTVTKSIGQYCIAAGNPARKIKDNISWNTTLSY” is “failed”; for “MQMMEQFYPKVSIVIPVYNGSDYMREAIDSALGQTYGNIEVIVVNDGSSDGGLTHEIALSYGGNIRYFAKENGGVASALNFAIRMMDGEYFSWLSHDDIYYPNKIETQIGYLAEHDRNAILYSDFELIDCLSKVIKPVNAGEIPPEQFLYNLITIGHLNGCTLLVPKRCFEETGFFDESLRSTQDYALWFTFAQKYRFEQIRKVLVKYRTHSNQGSYVIPTHSQEVNDLHIWFLEEASERGLLPIPDEGASRFFLEVAGIYKKRGIYRAADYSCSMALRHMRDEGGLALLRELPRVAYLKYYFRKKQFKSYLRELRRSTVRRSLLEHHHHHH” it is “not failed”. As for “MQNELQKYDDTINIAFFGLDRRQKTDISRSDSIMILTMDPTHKKLKLSSIMRDTYVNVDGHGMTKITHAYAYGGPQLAIKTINENFNLNIKDYVTVDFYGLEKIIDKLNGVEVDVQPDEVNYLNSYIDEVSKYEKVTPNHVSSAGKQLLDGRQAVAYSRIRYTAGGDFQRTERQRTVLMAVFNKMKAQGKSNMLSMMDELLPYAETDLGSLDIAKYGAKFLSSNIDSIDQERFPVDGYCSGITVDNVWYLKTDLGVTSDQMKKYIFEDVKPTPKASLVNIPAKLEHHHHHH”, the protein production result is recorded as “not failed”. Regarding “MQNTIIQKAVNKDLNSILEITKDALNAMKTMNFHQWDENYPNEIVFQEDIQAQELYVFKENDEILGFICINEKFKPEFYKQVIFNKNYDDKAFYLHRLAVKQNAKGKGVAQKLLNFCENFALENHKASLRADTHSKNFPMNSLFKKLDFNFCGNFDIPNYQ”, the protein production result is on record as “failed”. The entry for “MQNTIIQKAVNKDLNSILEITKDALNAMKTMNFHQWDENYPNEIVFQEDIQAQELYVFKENDEILGFICINEKFKPEFYKQVIFNKNYDDKAFYLHRLAVKQNAKGKGVAQKLLNFCENFALENHKASLRADTHSKNFPMNSLFKKLDFNFCGNFDIPNYQDPFLAYEKILNQKAF” is “not failed”; for “MQNTKLYSLTLIALGAAIIAVLSPLSIPIGIVPVTLQTLAVGLVATVLKARETFFAILLYLLLGFIGIPVFTGGTSGIAVLFGPTGGFLIAFLIMGTLISFGLHQINYKTIPAFIINIVGHLLMLVIGTLWLKFFTNVDWSLALKLGFTPFVIVEIIKAVLVTIFGLALIRALSHTNKYFTN” it is “failed”. The entry for “MQPQNIFDNEVFFQGYKKLRENPNSANILEEKPAIFSLLPELTGKKVLDLGCGYGENCNMFSKMGANKVVGIDVSSKMLAIANNDNSGDNIFYENMCMEDIFCINEKFDVVVSSLAVHYINDFNKLVCNVNSLLKDNGIFVFSQEHPLTTAPKNGARWFKNVDGRIAHYVLTDYATSGERTVSWIVDGITKYHRTFSDIVNALIDAGFIIEKMLEPVPTKEIIERDPSSAKDLHKPNFLVTRARKK” is “failed”; for “MQPTTRLSFSQRHPFIFGFLLIMVAVALFTGATATFRHLTDAGSFGGPRIGIVRIEGMIGDVRKTLEWMRKLAEDRTVRGVLVRVDSPGGAVAPSQELHDAVKRLAADKPVVVSMGSLAASGGLMVSTGATRIVANPATITGSIGVKMEMPNVQGLMDKIGVARQTLVSGDLKDAGSPFRAMSEAERAYFQSIIMEMYGQFVSMIAEDRNIPVEKVRSFADGRILTGSQALELGLVDKLGSEAAAMDVLLALVDLKGEKPVFIEPPKERSWVREVLESALGIAPPQNMGQPAFLYY” it is “failed”. The result for “MQQALAFVARHGRLGLMVGLGAGLALPGLAAVMRPWIPQLVALLLFLTAFRIGPVDAAGSLADLTRTARRVLVLQLALPILFLLGLRLLGLPVTPLALVLALVLAAPSVTGSANFTILLAQDPAPALRLLILGTALLPLTAIPVFWLLPAFGDPAEVFGAALRLLGVILLAAGCGFALRHWGARQLSDLNRRAMDGLTVIALAVIVIALMSAVRPAMTERPAELAFWLLAAFAINLGGQTLCYLTLRATGGADPVPTSIVAGNRNFALFFVALPSEVTEPLLIFLGCYQFPMYLTPTLMRRLYDPV” reads “failed”.

(Values after a protein production outcome set (Wang et al. 2014).)
